Measurements published in the supplement of paper PMC9876800.

Test system: peptide library, one residue held at a place counted from the S/T acceptor
Experiment: relative phosphorylation of the sub-library (ratio to the mean residue at this position); human; higher = residue favoured
How it was run: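 Each biotinylated degenerate peptide sub-library fixed one residue at one position around a central Ser/Thr and was incubated with a purified recombinant kinase, a human or orthologue construct, in 384-well plates. The 90 min reactions, under kinase-specific conditions, contained 50 μM peptide and 50 μM ATP spiked with γ-32P-ATP. Phosphorylation was read by phosphorimaging spots on streptavidin membranes and quantifying them by densitometry. Relative sub-library phosphorylation expresses each value as a ratio to the mean residue at that position.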

Chain of RIPK1, construct: aa1-327 (Q13546 1-327, looked up): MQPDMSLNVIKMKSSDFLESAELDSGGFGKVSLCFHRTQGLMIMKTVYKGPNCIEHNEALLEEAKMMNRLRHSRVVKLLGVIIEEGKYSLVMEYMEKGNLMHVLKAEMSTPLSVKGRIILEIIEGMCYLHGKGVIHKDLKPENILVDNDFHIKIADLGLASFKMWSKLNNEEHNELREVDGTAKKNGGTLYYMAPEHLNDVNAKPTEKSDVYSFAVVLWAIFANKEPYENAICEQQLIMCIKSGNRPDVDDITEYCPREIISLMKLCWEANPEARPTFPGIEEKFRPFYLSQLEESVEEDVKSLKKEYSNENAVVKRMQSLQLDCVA
Chain of NEK1, construct: aa1-505 (Q96PY6 1-505, looked up): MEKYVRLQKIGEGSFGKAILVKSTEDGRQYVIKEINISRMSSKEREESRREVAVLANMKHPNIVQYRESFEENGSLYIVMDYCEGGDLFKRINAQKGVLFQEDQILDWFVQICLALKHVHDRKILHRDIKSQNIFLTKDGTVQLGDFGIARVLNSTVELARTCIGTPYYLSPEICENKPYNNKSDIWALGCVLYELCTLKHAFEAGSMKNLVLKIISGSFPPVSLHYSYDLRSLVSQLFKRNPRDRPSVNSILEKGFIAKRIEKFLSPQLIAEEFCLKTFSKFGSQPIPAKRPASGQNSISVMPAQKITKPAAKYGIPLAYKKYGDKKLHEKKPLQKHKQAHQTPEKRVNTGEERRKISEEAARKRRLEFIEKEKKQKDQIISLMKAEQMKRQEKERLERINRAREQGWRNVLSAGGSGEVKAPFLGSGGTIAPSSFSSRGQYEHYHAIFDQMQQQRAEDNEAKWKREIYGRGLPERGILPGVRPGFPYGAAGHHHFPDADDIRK

NEK1, construct: aa1-505 (from UniProt Q96PY6)
relative phosphorylation
Details	at +1	at +2	at +3	at +4	at -1	at -2	at -3	at -4	at -5
A fixed	0.882	1.08	0.91	1.02	1.2	1	0.996	1.04	0.968
D fixed	0.22	0.456	0.504	0.774	0.566	0.69	0.378	0.781	0.764
E fixed	0.268	0.389	0.41	0.732	0.713	0.706	0.373	0.785	0.678
F fixed	1.36	0.744	1.2	0.804	0.891	0.98	1.61	1.06	1.15
G fixed	1.11	0.85	1.05	1.18	1.3	1.2	1.41	1.3	1.06
H fixed	1.02	1.22	1.03	1.11	1.21	1.08	1.14	0.962	1.05
I fixed	1.27	0.769	0.991	0.792	0.424	0.849	0.571	0.844	0.858
K fixed	1.16	2.06	1.03	1.38	1.46	0.75	1.03	1.33	1.24
L fixed	1.32	0.939	1.17	1	1.08	1.58	1.82	1.12	1.1
M fixed	1.67	0.975	0.907	0.93	1.41	1.24	1.62	0.996	1.13
N fixed	0.61	1.02	0.935	0.912	1.05	1.29	0.629	0.87	0.959
P fixed	0.142	0.95	1.12	1.15	0.558	0.677	1.25	1.14	1.4
Q fixed	1.05	0.706	0.724	1.01	0.889	1.04	0.668	0.799	0.889
R fixed	1.51	2.21	1.63	1.38	1.57	1.27	0.919	1.08	1.15
V fixed	0.958	0.914	0.851	0.78	0.522	0.713	0.444	0.783	0.82
W fixed	1.27	0.727	1.37	1.29	0.895	1.04	1.08	1.23	0.947
Y fixed	1.18	0.996	1.18	0.738	1.26	0.89	1.06	0.887	0.835
pThr fixed	0.424	0.571	0.507	0.579	0.323	0.516	0.508	0.746	0.905
pTyr fixed	0.397	0.434	0.642	0.547	0.707	0.523	0.648	0.851	1.03

RIPK1, construct: aa1-327 (from UniProt Q13546)
relative phosphorylation
Details	at +1	at +2	at +3	at +4	at -1	at -2	at -3	at -4	at -5
A fixed	0.709	0.619	0.572	0.819	0.574	1.01	0.92	1.03	0.84
D fixed	0.248	0.612	0.489	0.846	0.592	0.374	0.536	0.614	0.642
E fixed	0.331	0.927	0.398	0.81	0.313	0.37	0.551	0.685	0.68
F fixed	1.91	1.28	2	0.939	0.793	0.734	0.896	1.04	1.09
G fixed	0.79	0.817	0.707	1.28	0.747	1.21	1.29	1.27	1.18
H fixed	0.809	1.29	1.04	1.07	1.52	1.18	0.977	0.908	1.12
I fixed	1.1	1.28	1.19	1.27	1.12	1.07	0.944	1.04	1.28
K fixed	1.33	0.639	0.517	0.762	1.83	1.3	1.27	1.06	1.1
L fixed	0.829	1.21	1.09	0.947	1.01	1.19	0.986	0.935	1.14
M fixed	1.38	1.34	1.34	1.11	1.18	1.04	1.08	1.13	1.2
N fixed	0.583	0.801	0.726	0.839	1.3	0.975	0.829	0.76	0.797
P fixed	0.198	0.568	0.355	1.14	0.453	1.11	0.927	1.02	0.833
Q fixed	1.19	0.891	0.703	0.787	0.85	0.796	0.743	0.689	0.667
R fixed	2.48	1.02	1.13	0.945	1.97	1.94	2.35	1.4	1.32
V fixed	0.96	1.03	0.917	1.04	1.03	1.26	0.845	1.22	1.16
W fixed	1.01	1.03	1.88	1.22	0.675	0.763	1.02	1.29	0.987
Y fixed	1.15	1.66	1.94	1.18	1.04	0.682	0.84	0.912	0.972
pThr fixed	0.704	0.999	0.696	1.06	0.761	1.34	1.15	1.08	0.87
pTyr fixed	0.391	0.788	0.54	0.968	0.683	0.719	1.19	0.795	0.72
